T1: HLA-A2402 (human, UniProt P04439-2 25-302 at identity 0.92))
T1 MHC heavy: not shown


Target: T1, HLA-A2402
Assay: cell-based or functional assay

Binder | lowest peptide concentration at which enhancement of IFN-γ production by KE4-CTLs was detected (peptide-pulsed ClR/A2402 cells)
DYLRSVLEDF [Lck488-497] | ~1 nM
HYTNASDGL [Lck208-216] | ≥ 100 nM
TFDYLRSVL [Lck486-494] | ~1 nM

Source: patent US20020128201A1 (GREEN PEPTIDE, published 2002)
